In this assay the target is CD40 (from R&D systems) (UniProt P25942).
UniProt P25942, sequence (P25942 21-193 limits assumed): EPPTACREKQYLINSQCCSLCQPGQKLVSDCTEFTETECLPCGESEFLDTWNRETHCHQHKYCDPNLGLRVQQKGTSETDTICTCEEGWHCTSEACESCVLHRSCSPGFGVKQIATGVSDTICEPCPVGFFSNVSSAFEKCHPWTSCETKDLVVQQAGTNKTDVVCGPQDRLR

Turning to “toxic shock syndrome toxin-1 (TSST-1), native / wild-type (from UniProt P06886 41-234) (other; other documents disagree on this pair)”, the Kd (usually the constant that tells how readily two partners part at equilibrium) amounted to 2700 nM.

The values are drawn from patent US9789176.
